In article PMC7427332, “Tuning Transcription Factor Availability through Acetylation-Mediated Genomic Redistribution”:

Key:
[1] = molecular target: T1, MITF DNA-binding domain K243R (mouse? (MITF mouse cDNA stated for …, UniProt Q08874 287-403, K350R)); assay: fluorescence anisotropy; FA: 10 mM Tris/HCl pH 7.5, 300 mM NaCl, 0.01% Triton X-100, 0.1 mg/mL BSA, 1.33 nM DNA, 25 C, 5 min; EMSA: 25 mM HEPES pH 7.4, 150 mM KCl, 10% glycerol, 200 ug/ml BSA, 5 uM DTT, 20 min, 6% native gel; settings: protein: recombinant; tags: His (Ni-NTA purified; pETM-11 vector); chain copies: 2; label: 3'-fluorescein on strand 1; blunt
[2] = molecular target: T2, MITF DNA-binding domain K243Q (mouse? (MITF mouse cDNA stated for …, UniProt Q08874 287-403, K350Q)); assay: as above; settings: protein: recombinant; tags: His (Ni-NTA purified; pETM-11 vector); chain copies: 2; label: 3'-fluorescein on strand 1; blunt
[3] = molecular target: T3, MITF DNA-binding domain WT (bHLH-LZ) (mouse? (MITF mouse cDNA stated for …, UniProt Q08874 287-403)); assay: as above; settings: protein: recombinant; tags: His (Ni-NTA purified; pETM-11 vector); chain copies: 2; label: 3'-fluorescein on strand 1; blunt
[4] = molecular target: T2, MITF DNA-binding domain K243Q; assay: as above; settings: protein: recombinant; tags: His (Ni-NTA purified; pETM-11 vector); chain copies: 2; label: 3'-fluorescein on strand 1; blunt; remark: listed apart in the source
[5] = molecular target: T3, MITF DNA-binding domain WT (bHLH-LZ); assay: competition; competing N5 in EMSA; FA: 10 mM Tris/HCl pH 7.5, 300 mM NaCl, 0.01% Triton X-100, 0.1 mg/mL BSA, 1.33 nM DNA, 25 C, 5 min; EMSA: 25 mM HEPES pH 7.4, 150 mM KCl, 10% glycerol, 200 ug/ml BSA, 5 uM DTT, 20 min, 6% native gel; settings: protein: recombinant; tags: His (Ni-NTA purified; pETM-11 vector); chain copies: 2; blunt
[6] = molecular target: T2, MITF DNA-binding domain K243Q; assay: as above; settings: protein: recombinant; tags: His (Ni-NTA purified; pETM-11 vector); chain copies: 2; blunt
[7] = molecular target: T1, MITF DNA-binding domain K243R; assay: as above; settings: protein: recombinant; tags: His (Ni-NTA purified; pETM-11 vector); chain copies: 2; blunt
[8] = molecular target: T3, MITF DNA-binding domain WT (bHLH-LZ); assay: competition; competing N5 in EMSA; low-affinity motif; FA: 10 mM Tris/HCl pH 7.5, 300 mM NaCl, 0.01% Triton X-100, 0.1 mg/mL BSA, 1.33 nM DNA, 25 C, 5 min; EMSA: 25 mM HEPES pH 7.4, 150 mM KCl, 10% glycerol, 200 ug/ml BSA, 5 uM DTT, 20 min, 6% native gel; settings: protein: recombinant; tags: His (Ni-NTA purified; pETM-11 vector); chain copies: 2; blunt
[9] = molecular target: T1, MITF DNA-binding domain K243R; assay: as above; settings: protein: recombinant; tags: His (Ni-NTA purified; pETM-11 vector); chain copies: 2; blunt
[10] = molecular target: T2, MITF DNA-binding domain K243Q; assay: fluorescence anisotropy; FA: 10 mM Tris/HCl pH 7.5, 300 mM NaCl, 0.01% Triton X-100, 0.1 mg/mL BSA, 1.33 nM DNA, 25 C, 5 min; EMSA: 25 mM HEPES pH 7.4, 150 mM KCl, 10% glycerol, 200 ug/ml BSA, 5 uM DTT, 20 min, 6% native gel; settings: protein: recombinant; tags: His (Ni-NTA purified; pETM-11 vector); chain copies: 2; label: 3'-fluorescein on strand 1; blunt; remark: listed apart in the source

T3 sequence (Q08874 287-403): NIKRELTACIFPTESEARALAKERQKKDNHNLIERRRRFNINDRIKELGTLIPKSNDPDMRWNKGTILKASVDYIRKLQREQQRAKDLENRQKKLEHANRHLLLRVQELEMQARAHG
T2 sequence (Q08874 287-403 K350Q): as the sequence (Q08874 287-403) above, with K64Q counted along it
T1 sequence (Q08874 287-403 K350R): as the sequence (Q08874 287-403) above, with K64R counted along it

B1: E-box FA probe (dsDNA)
DNA 1: GAGACCACGTGTTGAC
DNA 2: GTCAACACGTGGTCTC
binding signal [1]: ~4 fold lower affinity than WT protein on same site
binding signal [2]: 21 fold lower affinity than WT protein on same site

B2: Consensus CLEAR box FA probe (dsDNA)
DNA 1: GAGATCACGTGATGAC
DNA 2: GTCATCACGTGATCTC
binding signal [1]: ~4 fold lower affinity than WT protein on same site
binding result [3]: binds
binding signal [4]: ~7 fold lower affinity than WT protein on same site

B3: TCACGTGA cold competitor (dsDNA)
DNA 1: CTAGACTTGTGGAGATCACGTGATGACTTCCTGATTCCT
DNA 2: AGGAATCAGGAAGTCATCACGTGATCTCCACAAGTCTAG
binding result [5]: binds
binding result [6]: binds
binding result [7]: binds

B4: TCACGTTA cold competitor (dsDNA)
DNA 1: CTAGACTTGTGGAGATCACGTTATGACTTCCTGATTCCT
DNA 2: AGGAATCAGGAAGTCATAACGTGATCTCCACAAGTCTAG
binding result [8]: binds
binding result [9]: binds
binding result [6]: no binding

B5: M-box FA probe (dsDNA)
DNA 1: GAGATCATGTGTTGAC
DNA 2: GTCAACACATGATCTC
binding signal [1]: ~4 fold lower affinity than WT protein on same site
binding signal [10]: 35 fold lower affinity than WT protein on same site
